This is an account of results in US20080293923A1 (Genentech, published 2008).

This assay has as its target T1, hepatocyte growth factor beta chain (HGF β) containing a Cys604 to Ser mutation (human, UniProt P14210 495-728).
T1 construct: Expressed in insect cells (baculovirus secretion vector pAcGP67), Val495 placed immediately after the secretion signal; Numbering follows full length HGF starting with MWV as 1-3; also called HGF β-chain; HGF-beta
Description: complex formation in solution, size exclusion chromatography. As for the experimental part: Elution fractions were assayed with SDS-PAGE, and those containing the complex were pooled. […] For this, Met, previously purified using Nickel chromatography as described above, was mixed with a combination of PNGase F (Roche) and Endoglycosidase A (Roche) at 1:100 enzyme:Met concentration and incubated at room temperature for 3 hours.

T1 sequence (P14210 other isoform, or with tags, fused parts or gaps limits assumed): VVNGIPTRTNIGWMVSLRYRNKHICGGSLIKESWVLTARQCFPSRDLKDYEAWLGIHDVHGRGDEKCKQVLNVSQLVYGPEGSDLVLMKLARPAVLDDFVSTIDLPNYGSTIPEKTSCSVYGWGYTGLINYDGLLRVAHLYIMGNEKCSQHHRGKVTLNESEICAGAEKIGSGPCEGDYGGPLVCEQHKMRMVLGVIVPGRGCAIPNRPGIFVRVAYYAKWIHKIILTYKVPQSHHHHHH

B1: extracellular fragment of the Met receptor containing residues 25 to 567 (Sema and PSI domain) with thrombin cleavable site and C-terminal (His)8-tag (receptor)
chain: ECKEALAKSEMNVNMKYQLPNFTAETPIQNVILHEHHIFLGATNYIYVLNEEDLQKVAEYKTGPVLEHPDCFPCQDCSSKANLSGGVWKDNINMALVVDTYYDDQLISCGSVNRGTCQRHVFPHNHTADIQSEVHCIFSPQIEEPSQCPDCVVSALGAKVLSSVKDRFINFFVGNTINSSYFPDHPLHSISVRRLKETKDGFMFLTDQSYIDVLPEFRDSYPIKYVHAFESNNFIYFLTVQRETLDAQTFHTRIIRFCSINSGLHSYMEMPLECILTELVPRGSTKKEVFNILQAAYVSKPGAQLARQIGASLNDDILFGVFAQSKPDSAEPMDRSAMCAFPIKYVNDFFNKIVNKNNVRCLQHFYGPNHEHCFNRTLLRNSSGCEARRDEYRTEFTTALQRVDLFMGQFSEVLLTSISTFIKGDLTIANLGTSEGRFMQVVVSRSGPSTPHVNFLLDSHPVSPEVIVEHTLNQNGYTLVITGKKITKIPLNGLGCRHFQSCSQCLSAPPFVQCGWCHDKCVRSEECLSGTWTQQICLPAIYKHHHHHHHH
notes: Expressed in insect cells (pAcGP67A); The complex was obtained with the unprocessed, single chain Met (not cut by thrombin); For better diffraction Met was deglycosylated with PNGase F and Endoglycosidase A before complex formation; also called Met fragment; Met Sema domain
For the molecule B1, the binding result was “binds”.
